The text below walks through data of patent publication US20180105835, “TARGETED RNA KNOCKDOWN AND KNOCKOUT BY TYPE III-A Csm COMPLEXES” (VILNIUS UNIVERSITY, published 2018).

The data set has as its target StCsm effector complex (Cas10-Csm2-Csm3-Csm4-Csm5, StCsm-40), wild type (Streptococcus thermophilus DGCC8004, UniProt A0A0A7HFE1;A0ABF7SXA0;A0A0A7HIF0;A0ABF7SXA2;A0ABF7SXA3 …). The experiment in a line: EMSA; gel shift, StCsm-40; value only in figure. Particulars: tags: N-terminal StrepII on Csm2; chain copies: Cas10:1 Csm2:3 Csm3:5 Csm4:1 Csm5:1 (stated); label: 5'-33P. How it is done: FIGS. 16A-B show in vitro cleavage activity of the StCsm targeted to the GFP transcript. Schematic representation of StCsm bound to the target RNA used for in vitro binding and cleavage assays is presented above the gels. RNA was 5′-end labeled with ³³P as indicated with asterisk. (FIG. 16A) Gel shift assay of RNA binding by StCsm-40. The binding reactions contained the ³³P-labeled GFP RNA (0.5 nM) and StCsm-40 at concentrations indicated by each lane. Samples were analyzed by PAGE under non-denaturating conditions. (FIG. 16B) StCsm-40 cleavage assay. Cleavage reactions were performed at 25° C. for indicated time intervals in the Reaction buffer supplemented with 10 mM Mg-acetate, 8 nM GFP RNA substrate and 160 nM StCsm-40. Samples were analyzed by denaturing PAGE, followed by phosphorimaging. […]
Binding assays were performed by incubating different amounts of Csm complexes with 0.5 nM of ³²P-5′-labeled NA in the Binding buffer (40 mM Tris, 20 mM acetic acid (pH 8.4 at 25° C.), 1 mM EDTA, 0.1 mg/ml BSA, 10% (v/v) glycerol). […] The Kd for NA binding by Csm-72 and Csm-40 was evaluated assuming the complex concentration at which half of the substrate is bound as a rough estimate of Kd value. For binding competition assay 0.5 nM ³²P-labelled S3/1 RNA was mixed with 0.5-5000 nM of unlabelled competitor NA and 0.3 nM StCsm-40, and analyzed by EMSA.

B1: jGFP crRNA 40 nt ; jGFP target RNA (coding-strand DNA sequence printed) (ssRNA ; ssRNA)
RNA 1: ACGGAAACAUAACCUUCGGGCAUGGCACUCUUGAAAAAGU
RNA 2: CAUGACUUUUUCAAGAGUGCCAUGCCCGAAGGUUAU
Regarding B1, the binding result is given as “binds”.
